Experimental data as given in patent publication US20150093386A1.

Tests used:
Assay in all cases: cell-based or functional assay
[1] = target: EGFR overexpressed on U87 MG EGFR cells (UniProt P00533)
[2] = target: EGFRvIII (EGFR with deletion of exons 2-7) on U87 MG-EGFRvIII cells (human) (UniProt P00533)
[3] = target: endogenous EGFR at low level on U87 MG cells (human) (UniProt P00533)

humanized monoclonal antibody ch806 gave an EC50 values of cytotoxicity on MG-EGFR cells [1] of 6.48 µM, a cytotoxicity % at 0.0002 nM, U87 MG EGFR cells with PBMC [1] of 1.89% and a cytotoxicity % at 0.002 nM, U87 MG EGFR cells with PBMC [1] of 0.61%. The cytotoxicity % at 0.02 nM, U87 MG EGFR cells with PBMC [1] was 1.31%, the cytotoxicity % at 0.2 nM, U87 MG EGFR cells with PBMC [1] was 0.37% and the cytotoxicity % at 2 nM, U87 MG EGFR cells with PBMC [1] was 0.49%. For the same substance, the cytotoxicity % at 20 nM, U87 MG EGFR cells with PBMC [1] was 4.92%, the EC50 values of cytotoxicity on U87 MG-EGFRvIII cells [2] was 0.0408 µM and the cytotoxicity % at 0.0002 nM, U87 MG EGFRvIII cells with PBMC [2] was 0.41%. The cytotoxicity % at 0.002 nM, U87 MG EGFRvIII cells with PBMC [2] was 0.62%, the cytotoxicity % at 0.02 nM, U87 MG EGFRvIII cells with PBMC [2] was 0.76% and the cytotoxicity % at 0.2 nM, U87 MG EGFRvIII cells with PBMC [2] was 15.6%. It also gave a cytotoxicity % at 2 nM, U87 MG EGFRvIII cells with PBMC [2] of 22.3%, a cytotoxicity % at 20 nM, U87 MG EGFRvIII cells with PBMC [2] of 36.3% and a cytotoxicity % at 0.0002 nM, U87 MG cells with PBMC [3] of 0.96%. The cytotoxicity % at 0.002 nM, U87 MG cells with PBMC [3] was 0.71%, the cytotoxicity % at 0.02 nM, U87 MG cells with PBMC [3] was 0.71% and the cytotoxicity % at 0.2 nM, U87 MG cells with PBMC [3] was 0.07%. The cytotoxicity % at 2 nM, U87 MG cells with PBMC [3] was 0.28% and the cytotoxicity % at 20 nM, U87 MG cells with PBMC [3] was 4.18%.
